Results on six molecules are retold here after PMC8902505, “A Continuous Assay Set to Screen and Characterize Novel Protein N-Acetyltransferases Unveils Rice General Control Non-repressible 5-Related N-Acetyltransferase2 Activity” (Frontiers in Plant Science, 2022).

As usually defined, the Km is the substrate concentration at which the rate is half of its maximum. As a reminder, the kcat is the maximal rate divided by the concentration of active sites. Usually kcat/Km stands for the turnover number divided by the Michaelis constant.

One data set addresses T1, OsGNAT2 (Oryza sativa, UniProt Q5KQI6).
T1 construct: gene SNAT1
Description: PDH-coupled continuous assay (NADH, […] nm). Format: biochemical. To be noted: upper bound inferred from no gain between 100 and 500 μM Ac-CoA; peptide substrate; pH 8.0; 30 °C.

The target in data set [1] is Schizosaccharomyces pombe NatA (SpNaa15 full length + SpNaa10 full length heterodimer) (Schizosaccharomyces pombe).
Data set [2] shares this target. The source holds these as a separate data set.
Substrate in the data set “purified protein”: CC(=O)SCCNC(=O)CCNC(=O)[C@H](O)C(C)(C)COP(=O)(O)OP(=O)(O)OC[C@H]1O[C@@H](n2cnc3c(N)ncnc32)[C@H](O)[C@@H]1OP(=O)(O)O
Put plainly: purified protein. The settings on record: extrapolated to saturating reference peptide …, 12.5-500 μM Ac-CoA, pH 8.0, 30 °C.

T1 sequence (Q5KQI6 89-254): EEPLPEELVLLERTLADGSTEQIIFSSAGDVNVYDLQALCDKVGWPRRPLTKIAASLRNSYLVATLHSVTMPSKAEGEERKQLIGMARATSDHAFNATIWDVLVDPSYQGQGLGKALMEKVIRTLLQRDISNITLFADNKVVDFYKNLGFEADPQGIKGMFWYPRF

Turning to `CC(=O)SCCNC(=O)CCNC(=O)[C@H](O)C(C)(C)COP(=O)(O)OP(=O)(O)OC[C@H]1O[C@@H](n2cnc3c(N)ncnc32)[C@H](O)[C@@H]1OP(=O)(O)O` [Ac-CoA], the Km on OsGNAT2 was < 0.03 mM.

B1: reference peptide … (canonical NatA substrate) (peptide)
peptide: SASEAGVRWGRPVGRRRRP
For B1, the Km of the peptide substrate, PDH-coupled acetylation assay, 100 μM Ac-CoA, 30°C in data set [1] amounted to 1 mM.

B2: natural 19-amino acid N-terminal sequence of yeast Ths1p, … (peptide)
peptide: SASEAGVAEQVKKLSVNDS
In the case of B2, the Km of the peptide substrate, PDH-coupled acetylation assay, 100 μM Ac-CoA, 30°C in data set [1] is 2.3 mM.

B3: peptide SASEAGVR (peptide)
peptide: SASEAGVR
On to B3, for which the Km of the peptide substrate, PDH-coupled acetylation assay, 100 μM Ac-CoA, 30°C (value as told in the text) in data set [2] came out at 12 mM. In addition, the Km of the peptide substrate, PDH-coupled acetylation assay, 100 μM Ac-CoA, 30°C in data set [1] was determined as 14.8 mM.

B4: peptide SASEAGV (peptide)
peptide: SASEAGV
For the molecule B4, the Km of the peptide substrate, PDH-coupled acetylation assay, 100 μM Ac-CoA, 30°C (value as told in the text) in data set [2] came out at 19 mM. In data set [1], the Km of the peptide substrate, PDH-coupled acetylation assay, 100 μM Ac-CoA, 30°C was 25.5 mM.

B5: SpNatA (Schizosaccharomyces pombe 972h-) (protein)
chain: MDIRPARISDLTGMQNCNLHNLPENYQLKYYLYHAISWPMLSYVATDPKGRVVGYVLAKMEEEPKDGIPHGHITSVSVMRSYRHLGLAKRLMVQSQRAMVEVYGAKYMSLHVRKSNRAAIHLYRDTLQFDVQGIESKYYADGEDAYAMHKDFSTLKFDTPETNDELAKTVQSLALNN
Turning to B5, in the data set “purified protein”, the Michaelis-Menten constant (Km) is given as 0.020 ± 0.003 mM, the turnover number (kcat) was 10 s⁻¹ and the kcat/Km was 508000 ± 89900 M⁻¹ s⁻¹.
